# Measured values reported in the nanobody polyreactivity screen of Harvey et al. (2022).
# Assay: yeast display, Sf9 membrane polyspecificity reagent, FACS + sequencing; frameworks hold sequencing errors
# Method in brief: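 Synthetic nanobody libraries on Saccharomyces cerevisiae BJ5465 were galactose-induced for 36–48 hours, stained 1 hour at 4 °C with 10% biotinylated, detergent-solubilized Sf9 membrane reagent and enriched on streptavidin microbeads. FACS then separated cells into low and high (top ~1%) gates by anti-HA (expression) and streptavidin (reagent binding) fluorescence. Genes were colony-PCR amplified, MiSeq 2 × 250 sequenced and CDR-length filtered. A clone's polyreactivity label is that of its gate of origin.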
row,Sequence,polyreactivity (PSR sort gate)
1,QVQLVESGGGLVQARGSLRLSCAASGFNISNYAMGWYREAPGKESELVAAIRRSGGSTYYADSVKGRFTISRDNAKNTVYLQMNSRKPEDTAVYYCAAYPKRGSRYDYWGLGTQVTVSS,high polyreactivity
2,QVQLVESGGGLVQARGSLRLSCAASGFTFPSYAMGWYRQAPGKERELVARITWIGGRTYYADSVKGRFTISRDNAKNTVYLQMNSLKPEDSAVYYCAARIGGGPVKYDYWGQGTQVTVSS,high polyreactivity
3,QVQLVESGGGLVQARGSLRLSCAASGFTFSDYVMGWYRQAPGKERELVAVITSGSSTYYADSVKGRFTISRDNAKNTVYLQMNSLKPEDTAVYYCNADPDDGYFSDFDYWGQGTQVTVSS,low polyreactivity
4,QVQLVESGGGLVQARGSLRLSCAASGFTFSRYAMGWYRQAPGKERELVAAITRSGGSTYYADSVKGRFTISRDNAKNTVYLQMNSLKPEDTAVYYCAKRAASGFRWDSGYWGQGTQVTVSS,high polyreactivity
5,QVQLVESGGGLVQARGSLRLSCAASGGIFDTYVMGWYRQAPGKERELVAAISCSGSTTYADSVKGRFTISRDNAKYTVYLQMNSLKPEDTAVYYCNADYSTIWRYDYWGQGTQVTVSS,low polyreactivity
6,QVQLVESGGGLVQARGSLRLSCAASGGTFESYAMGWYRQAPGKERELVAAITYSGGSTYYADSVKGRFTISRDNAKNTVYLQMNSLKPEDTAVYYCAARPRFITYKRYYWGQGTQVTVSS,high polyreactivity
7,QVQLVESGGGLVQARGSLRLSCAASGGTFLSYAMGWYRQAPGKERELVAGISSGGSTNYADSVKGRFTISRDNAKNTVYLQMNSLKPEDTAVDYCAADSFPSEFDYWGQGTQVTVSS,low polyreactivity
8,QVQLVESGGGLVQARGSLRLSCAASGIIFKGYAMGWYRQAPGKERELVAGITRYGGGTYYADSVKGRFTISRDNAMNTVYLQMNRLKPEDTAVYYCAAVRIARAVQDYDYWGQGTQVTVSS,high polyreactivity
9,QVQLVESGGGLVQARGSLRLSCAASGITFRVNAMGWYRPAPGKERELVAAISRGGGSTYYADSVKGRFTISRDNAKNTVYLQMNSLKPEDTAVYFCAASYGAPYGYKRYYYWGQGTQVTVSS,high polyreactivity
10,QVQLVESGGGLVQARGSLRLSCAASGLIFKYNVMGWYRQAPGTERELVAAITWGGTRTYYADSVKGRFTISRDNAKNTVYLQMNSLKPEDTAVYYCARSHWTWLLIYIGAQDYDYWGQGTQVTVSS,low polyreactivity
11,QVQLVESGGGLVQARGSLRLSCAASGNTIIRYAMGWYRQAPGKERELVAAISYAGGRTYYADSVKGRFTISRDNAKNTVYLQMNSLTPEDTAVYYCNAASRYGGDYWGQGTQVTVSS,high polyreactivity
12,QVQLVESGGGLVQARGSLRLSCAASGRIFGNNAKGWYRQAPGKARELVAAIRRGGSTYYADSVKGRFTISRDNAKITVYLQMNSLKPEETAVYYCAADSSRKHFYWGQGTQVTVSS,high polyreactivity
13,QVQLVESGGGLVQARGSLRLSCAASGRIFSYNDMGWYRQAPGTERELVAVISIRGGGTYYADSVKGRFTISRDNAKNTVYFQMNSLKPEDTAVYYCNAEYVTFGEEYGYWGQGTQVTVSS,low polyreactivity
14,QVQLVESGGGLVQARGSLRLSCAASGRTFRYYTMGWYRQAPGKEREFVAAITFRGGSTYYADSVKGRFTISRDNAKNTVYLQMNSLKPEDTAVYYCAAVGRYSRYPYSDTYGYWGQGTQVTVSS,high polyreactivity
15,QVQLVESGGGLVQARGSLRLSCAASGRTLTYNAMGWYRPAPGKERELVAVISSRGDTTYYADSVKGRFTISRDNAKNTVYLQRNSLKPEDTAVYFCNSALSGRRSYYYWGQGTQVTVSS,low polyreactivity
16,QVQLVESGGGLVQARGSLRLSCAASGSIFRYNAMGWYRQAPGKERELVAAITSAGGSTYYADSVKGRFTISRDKAKNTVYLQMNSLKPEDTAVYYCAVRYYVYFPWPRVTERMYYWGQGTQVTVSS,high polyreactivity
17,QVQLVESGGGLVQARGSLRLSCAASGSIFYNYGMGWYRQAPGKERELVAAIRASGDSTYYADSVKGRFTISRDNAKNTVYLQMNSLKPEDTAVYYCAARPNQSYYGLYYYWGQGTQVTVSS,low polyreactivity
18,QVQLVESGGGLVQARGSLRLSCAASGSIIDYYAMGWYRQAPGKERELVAAINISGGDTYYADSVKGRFTISRDNAKNTVYLQMNSLKPEDTAVYYCNADRFYIDYSNTYDSIRDYWGQGTQVSVSS,low polyreactivity
19,QVQLVESGGGLVQARGSLRLSCAASGSTFPYYTMGWYRQAHWKERELVAAITTRGGGTYYADSVKGRFTISRDNAKNTVYLKMNSLKPEDTAVYYCAAKTIYDTRGIRHYYWGKGTQVTVSS,high polyreactivity
20,QVQLVESGGGLVQARGSLRLSCAASGSTFTRYGMGWYRQAPGKERELVAAITTSGSSTYYADSVKGRFTISRDNAKNTVYLQMNSLKPEDTAVYYCAADWSSWGFDYWGQGTQVTLSS,low polyreactivity
21,QVQLVESGGGLVQARGSLRLSCAASGYIFFGNAMGWYRQAPGKERELVAAIRWRGTSTYYADSVKGRFTISRDNAKNTVYLQMKSLKPEDTAVYYCAADVVSSNFYGTFLYDYDYWGQGTQVTVSS,low polyreactivity
22,QVQLVESGGGLVQARGSLRLSCAASLLTFGKNDMGWYRQAPGKEREFVAAITSRGGYTYYADSVKGRFTISRDNAKNTVYSQMNSLKPEDTAVYYCNREYKRPSQRTEHSYWGQGTQVTVSS,low polyreactivity

row,Sequence,polyreactivity (PSR sort gate)
1,QVQLVESGGGLVQARGSLRLSCASSGSIFNYYDMGWYRQAPGKERELVAAIDTSGGSTYFADSVKGRFTISRDNAKNTVYLQMNRLKPEDTAVYYCAAEWPYYDKIYDYWGQGTQVTVSS,low polyreactivity
2,QVQLVESGGGLVQARGSLRLSCASSGSIFRFNGMGWYRQPPGKERELVATISSGGRTNYADSVKGRFTISRDNAKNTVYLQMNSLKPEDTAVYYCAARSPLRTSYYYPYYYWGQGTQVTVSS,high polyreactivity
3,QVQLVESGGGLVQARGSLRLSFAASGYTLRPNGMGWYRQAPGKERELVAAISSGGSTYYADSVKGRFTISRDNAKNTVYLQLNSLKPEDTAVSYCAAEYWYDYWVQGTQVTVSS,low polyreactivity
4,QVQLVESGGGLVQARGTRRLSSAACGRTFGSYAMGWYRQAPGKERELVAAISRSDGSTYYADSVKGRFSISRDNEKNTVYFQMNSLKPEDTAVYYCAAKRWYVSYDYDYWGQGTQVTVSS,high polyreactivity
5,QVQLVESGGGLVQARRRLRLSCAASGRTFRENFMGWYRQEPGKEREFVAISSSGASTYYADSVKGRFTISRDNAKNTVYLQMNSLKPEDTAVYYCAAKLYGAPYSKYYYWGHGTQVTVSS,high polyreactivity
6,QVQLVESGGGLVQASGSLRLSCAASGLTFYLNAMGWYRPEHGKERELVAGISYTGGSTYYADSVKGRFTISRDNAKNTVYLQMNSLKPEDTAVYSCARDNFYYGVWDYGYWGQGTQVTVSS,low polyreactivity
7,QVQLVESGGGLVQAVGRLRLSCAASGLTFQYYAMGWYRQAPGKERELDAAISRSGGRSYYADSVKGRFTISRDNAKYTVYLQMISLKPEDSAVSYCNAVRRFASPTRHYYWGQGTQVTVSS,high polyreactivity
8,QVQLVESGGGLVQAVGSHRLSCAASGSIFFWYTMGWYRQPPGKERELVATITGSGSSTTYADSVKGRFTISRDNAKNTVYLQMNSLKPVDTAVYYCAAADIIDHSFPYDYWGQGTQVTVSS,low polyreactivity
9,QVQLVESGGGLVQAVGSLRLICAPSGSIFGTNAMGWYRQAPGKERELVATISYGDGSTYYADSVKGRFTISRDNAKNTVYLQMNSLKPEDTAVYYCNTGVYSSGGPLDYWGQGTQVTVSS,low polyreactivity
10,QVQLVESGGGLVQAVGSLRLSCAASGFTFRGYDMRSYRQAPGKQRELVAGITWGDDSTYYADSVKRRFTISRDKAKNTGYLQMNILKPEDTAVYYCAAEYVFHDVLWWIYGYWRQGTQVTVSS,high polyreactivity
11,QVQLVESGGGLVQAVGSLRLSCAASGRIFVYNAMGWYRQAPGKERELVASITSSGGSTYYADSVKGRFTISRDNAKNTFYLQMNSLKPEDTAVYYCAADVQPDTRSTPEMDYWGQGTQVTVSS,low polyreactivity
12,QVQLVESGGGLVQAVGSLRLSCAASGRTFDEYAMGWYRQAPGKERELVAAISTRGGSTYYADSVKGRFTISRDNAKNTVYLQMNSLKPEDTAVYYCAADYTKSSSPWPGYYWGQGTQVTVSS,high polyreactivity
13,QVQLVESGGGLVQAVGSLRLSCAASGRTLSRNAKGWYRQAPGKEREFVAAISSRGTSTYYADSVKGRFTISRDNAKNSVYLQMNSLKPEDTAVYYCATTLGGNYGYDYWGQGTQVTVSS,high polyreactivity
14,QVQLVESGGGLVQAVGSLRLSCAASGSIFVKYAMGWYRQAPGKERELVAALSRSGGSTYYADSVKGRFTISRDNAKNTVYLQMNSLKPEDTEVYYCAATYYKGMNYWGQGTQVTVSS,high polyreactivity
15,QVQLVESGGGLVQAVGSLRLSCAASGSTFGEYAMGWYRQAPGKERELVAVITSDDNTYYADSVKGRFTISRDNAKNTVYLQMNSLKPEDTAVYYCATDDRRRFKYWGQGTQVTVSS,high polyreactivity
16,QVQLVESGGGLVQAVGSLRLSCAASGSTFGRNAMGWYRQAPGKERELVAAISWSASRTYYADSVKGRFTISRDNAKNTVYLQMNSLKPEDTAVYFCAAEYDVGYFGYEYWGQGTQVTVSS,high polyreactivity
17,QVQLVESGGGLVQAVGSLRLSCAASGSTFKRNAMGWYRQAPGKERELVAAITSGGSTYYADSVKGRFTISRDNAKNTVYLQMNSLKPEVTAVYYCNKVPYLKLKMDYWGQGTQVTVSS,high polyreactivity
18,QVQLVESGGGLVQAVGSLRLSCAASGSTFSRYAMGWYRQAPGKERELVAAISWGGNTYYADSVKGRFTISRDNAKNTVYLQMNSLKPVDTAVYYCNRYSKLYNTMDYWGQGTQVTVSS,high polyreactivity
19,QVQLVESGGGLVQAVRSLRLSCAASGFTFNGNAMGWYRQAPGKDRELVAAISYSGGSTYYADSVKGRFTISRDNAKNTVYLQMNSLKPEDTAVYYCAADRTAYSVRAYTKDHSGHDYWGQGTQVTVSS,low polyreactivity
20,QVQLVESGGGLVQEGASLRLSCAASGSIVGYYAMGWYRQAHGKERELVAAITRYGGRTYYADSVKGRFTISRDNGKNTVYLQMNSLKPEDTAVYYCNAANSRYAYYYWGQGTQVTVSS,high polyreactivity
21,QVQLVESGGGLVQEGGCLRLSSAASGSIFKSNAMGWYRQAPGKERELVATISRIGGSTYYADSVKGRFTISRDNAKNTVYLQMNCLKPEDTAVYYFAARRYLYTVGYGPRRGLVYWGQGTQVTVSS,high polyreactivity
